{"source": "paper PMC9018702", "key": {"MBP-TDR [1]": {"molecular_target": "T1, MBP-TDR (Oryza sativa (ORF cloned from ZH11), UniProt Q6YUS3 1-552)", "experiment": "EMSA; EMSA: 10 mM Tris-HCl pH 7.5, 50 mM KCl, 5 mM MgCl2, 1 mM DTT, 2.5% glycerol, 0.05% NP-40, 50 ng/uL poly(dI-dC), 10 fmol probe, 1 ug protein in 20 uL, room tempe"}, "MBP-TDR [2]": {"molecular_target": "T1, MBP-TDR", "experiment": "competition; 10-, 20-, 100-fold excess unlabeled probe eliminates shift; EMSA: 10 mM Tris-HCl pH 7.5, 50 mM KCl, 5 mM MgCl2, 1 mM DTT, 2.5% glycerol, 0.05% NP-40, 50 ng/uL poly(dI-dC), 10 fmol probe, 1 ug protein in 20 uL, room tempe"}}, "data": [{"binder": "EAT1 promoter P1 probe (dsDNA) DNA 1: GCGTATCGTGGTCATCTGTCTATTTTACATGCACTTGTAGCTGGATAAA DNA 2: TTTATCCAGCTACAAGTGCATGTAAAATAGACAGATGACCACGATACGC", "values": [{"measurement": "binding result", "setting": "MBP-TDR [1]", "result": "binds"}]}, {"binder": "EAT1 promoter P1 unlabeled competitor (dsDNA) DNA 1: GCGTATCGTGGTCATCTGTCTATTTTACATGCACTTGTAGCTGGATAAA DNA 2: TTTATCCAGCTACAAGTGCATGTAAAATAGACAGATGACCACGATACGC", "values": [{"measurement": "binding result", "setting": "MBP-TDR [2]", "result": "binds"}]}]}
